± gives the uncertainty stated by the source.

B1: SAM and SH3 domain-containing protein 1, residues 630 to 700; numbered along this chain, O94885 (parent)
chain: GRPPQPKSVEDLLDRINLKEHMPTFLFNGYEDLDTFKLLEEEDLDELNIRDPEHRAVLLTAVELLQEYDSN

This series covers variants of B1. In words: abundance fitness (aPCA) (normalised: wild type 0, dead -1); higher = more abundant; growth selection in yeast, the domain comes from the species named. Conditions: Homo sapiens.
For GRPPQPKSVEDLLDRINLKEHMPTFLFNGYEDLDTFKLLEEEDLDELNIRDPEHRAVMLTAVELLQEYDSN, the abundance fitness was -0.717 ± 0.078.
The result for GRPPQPKSVEDLLDRINLKEHMPTFLFNGYEDLDTFKLLEEEDLDELNIRDPEHRAVSLTAVELLQEYDSN reads -0.516 ± 0.054; that for GRPPQPKSVEDLLDRINLKEHMPTFLFNGYEDLDTFKLLEEEDLDELIIRDPEHRAVLLTAVELLQEYDSN, -0.985 ± 0.24; that for GRPPQPKSVEDLLDRINLKEHMPTFLFNGYEDLDTFKLLEEEDLDELCIRDPEHRAVLLTAVELLQEYDSN, -0.273 ± 0.12.
For the variant YRPPQPKSVEDLLDRINLKEHMPTFLFNGYEDLDTFKLLEEEDLDELNIRDPEHRAVLLTAVELLQEYDSN, the abundance fitness worked out at 0.098 ± 0.075.
The result for KRPPQPKSVEDLLDRINLKEHMPTFLFNGYEDLDTFKLLEEEDLDELNIRDPEHRAVLLTAVELLQEYDSN reads 0.163 ± 0.096.
The result for GRPPQPKSVEDLLDRINLKEHMPTFLCNGYEDLDTFKLLEEEDLDELNIRDPEHRAVLLTAVELLQEYDSN reads 0.272 ± 0.04; that for GRPPQPKSVEDLLDRINLKEHMPTFLMNGYEDLDTFKLLEEEDLDELNIRDPEHRAVLLTAVELLQEYDSN, 0.327 ± 0.041.
The result for GRPPQPKSVEDLLDRINLKEHMPTFLFNGYEDLDTFKLLEEEDLDELNIRDPEHRAVLLTAVELGQEYDSN reads -0.808 ± 0.076.
As to GRPPQPKSVEDLLDRINLKEHMPTFLFNGYEDLDTFKLLEEEDLDELNIRDPEHRAVLLTAVELSQEYDSN, the abundance fitness is -0.69 ± 0.048.
The result for GRPPQPKSVEDLLDRINLKEHMPTFLFNGYEDLDTFKLLEEEDLDELNIRDPEHRAVLLTAVELEQEYDSN reads -0.758 ± 0.097; that for GRPPQPKSVEDLLDRINLKEHMPTQLFNGYEDLDTFKLLEEEDLDELNIRDPEHRAVLLTAVELLQEYDSN, -0.778 ± 0.078.
Take GRPPQPKSVEDLLDRINLKEHMPTFLFNGYEDLDTFKLLEEEDLDELNIRDPEHRAVLLTPVELLQEYDSN: the abundance fitness is -0.731 ± 0.069.
The result for GRPPQPKSVEDLLDRINLKEHMPTFLFNGYEDLDTFKLLEEEDLDELNIRDPEHRAVLLTTVELLQEYDSN reads -0.479 ± 0.055.
With GRPPQPKSVEDLLDRINLKEHMPTFLFNGYEDLDTFKLLEEEDLDELNIRDPEHRAVLLTDVELLQEYDSN, the abundance fitness is -0.787 ± 0.099.
In the case of GRPPQPKSVEDLLDRINLKEHMPTFLFNAYEDLDTFKLLEEEDLDELNIRDPEHRAVLLTAVELLQEYDSN, the abundance fitness was -0.806 ± 0.062.
For the variant GRPPQPKSVEDLLDRINLKEHMPTFLFNHYEDLDTFKLLEEEDLDELNIRDPEHRAVLLTAVELLQEYDSN, the abundance fitness was -0.831 ± 0.081.
The result for GRPPQPKSVEDLLDRINLKEHMPTFLFNGYEDLDTFKLLEEEDLDELNIRDPEHRAVLLTAVELLQEDDSN reads 0.076 ± 0.054.
Consider GRPPQPQSVEDLLDRINLKEHMPTFLFNGYEDLDTFKLLEEEDLDELNIRDPEHRAVLLTAVELLQEYDSN, for which the abundance fitness is -0.119 ± 0.067.
For the variant GRPPQPSSVEDLLDRINLKEHMPTFLFNGYEDLDTFKLLEEEDLDELNIRDPEHRAVLLTAVELLQEYDSN, the abundance fitness was -0.097 ± 0.038.
For the variant GRPPQPKSVEDLLDRINLKEHMPTFLFNGYEDLDTFKLLEEEDLDELNIRDPEHRAVLLTAVEKLQEYDSN, the abundance fitness amounted to 0.264 ± 0.044.
As for GRPPQPKSVEDLLDRINLKEHMPTFLFNGYEDLDTFKLLEEEDLDELNIRDPEHRAVLLTAVEELQEYDSN, the abundance fitness turned out to be 0.483 ± 0.045.
The result for GRPPQPKSVEDLLDRINLKEHMPTFLFNGYEDLDTFKLLEEEDLDELNIRDPEHRAVLLTAVEMLQEYDSN reads 0.193 ± 0.043.
The result for GRPPQPKSVGDLLDRINLKEHMPTFLFNGYEDLDTFKLLEEEDLDELNIRDPEHRAVLLTAVELLQEYDSN reads -0.434 ± 0.063; that for GRPPQPKSVEDLLDRINLKEHMPTFLFNGYEDLDTFKLGEEEDLDELNIRDPEHRAVLLTAVELLQEYDSN, -0.812 ± 0.067; that for GRPPQPKSVEDLLDRINLKEHMPTFLFNGYEDLDTFKLLEEEDLDELNIRDPEHRAVLLVAVELLQEYDSN, -0.735 ± 0.069.
Turning to GRPPQPKSVEDLLDRINLKEHMPTFLFNGYEDLDTFKLLEEEDLDELNIRDPEHRAVLLFAVELLQEYDSN, the abundance fitness is -0.613 ± 0.06.
GRPPQPKSVEDLLDRINLKEHMPTFLFNGYEDLDTFKLLEEEDLDELNIRDPEHRAVLLTAVALLQEYDSN: the abundance fitness came to 0.034 ± 0.035.
In the case of GRPPQPKSVEDLLDRINLKEHMPTFLFNGYEDLDTFKLLEEEDLDELNIRDPEHRAVLLTAVWLLQEYDSN, the abundance fitness is -0.751 ± 0.081.
The result for GRPPQPKSVEDLLDRINLKEHMPTFLFNGYEDLDTFKLLEEEDLDELNIRDPEHRAVLLTAVILLQEYDSN reads -0.898 ± 0.077; that for GRPPQPKSVEDLLDRINLKEHMPTFLFNGYEDLDTFKLLEEEDLDELNIRDPEHRAVLLTAVELLWEYDSN, -0.21 ± 0.061; that for GRPPQPKSVEDLLDRINLKEHMMTFLFNGYEDLDTFKLLEEEDLDELNIRDPEHRAVLLTAVELLQEYDSN, -0.268 ± 0.061.
The result for GRPPQPKSVEDLLDRINLKEHMPTFLFNGYEDLDTFGLLEEEDLDELNIRDPEHRAVLLTAVELLQEYDSN reads -0.669 ± 0.073; that for GRPPQPKSVEDLLDRINLKEHMPTFLFNGYEDLDTFCLLEEEDLDELNIRDPEHRAVLLTAVELLQEYDSN, -0.449 ± 0.072.
The result for GRPPQPKSVEDLLDRINLKEHMPTFLFNGYEDWDTFKLLEEEDLDELNIRDPEHRAVLLTAVELLQEYDSN reads -1.19 ± 0.17; that for GRPPQPKSVEDLLDRINLKEHMPTFLFNGYEDSDTFKLLEEEDLDELNIRDPEHRAVLLTAVELLQEYDSN, -0.812 ± 0.066.
In the case of GRPTQPKSVEDLLDRINLKEHMPTFLFNGYEDLDTFKLLEEEDLDELNIRDPEHRAVLLTAVELLQEYDSN, the abundance fitness stood at 0.101 ± 0.046.
As to GRPPQPKSVEDLLDRINLKEHMPTFLFNGYEDLDTFKLLEEEDLDELNIRDPEHRAVLLTAMELLQEYDSN, the abundance fitness is -0.648 ± 0.072.

(Values after the Human Domainome abundance scans (Beltran et al. 2025).)
